The record followed here is patent publication US20190322748A1 (Hoffmann-La Roche, published 2019).

Test [1] deals with T1, biotinylated PD1-ECD-AviHis (human, UniProt Q15116 25-170, biotinylated, site not stated).
T1 construct: also called huPD1; hu PD1
Description: ELISA, inhibition of PD-L2 Fc binding to coated PD1-ECD-AviHis. In general terms: In an ELISA, binding on a coated surface is turned into a signal by an enzyme label.

For test [2], the target named is T2, biotinylated cynoPD1-ECD-Biotin (cynomolgus).
T2 construct: extracellular domain; also called cyPD1
The test can be described thus: ELISA on coated cynoPD1-ECD-Biotin.
Description: After washing (3×90 μl/well with PBST-buffer) 25 μl anti PD1 samples or reference antibodies (human anti PD1; Roche) were added and incubated 1 h at RT on shaker. After washing (3×90 μl/well with PBST-buffer) 25 μl/well goat-anti-human H+L-POD (JIR, JIR109-036-088) was added in 1:1000 dilution and incubated at RT for 1 h on shaker.

For test [3], the target named is T1, biotinylated PD1-ECD-AviHis. The test can be described thus: ELISA, inhibition of PD-L1 Fc binding to coated PD1-ECD-AviHis.
Test [4] has the same target. Description: ELISA on coated biotinylated PD1-ECD-AviHis.
Description: After washing (3×90 μl/well with PBST-buffer) 25 μl/well goat-anti-human H+L-POD (JIR, JIR109-036-088)/Sheep-anti-mouse-POD (GE Healthcare; NA9310) was added in 1:2000/1:1000 dilution and incubated at RT for 1 h on shaker.
Test [5] shares this target. The test can be described thus: ELISA on coated biotinylated PD1-ECD-AviHis. The source holds these as a separate data set.
Description: After washing (3×90 μl/well with PBST-buffer) 25 μl anti PD1 antibody samples were added in increasing concentrations and incubated 1 h at RT. After washing (3×90 μl/well with PBST-buffer) 25 μl/well goat-anti-human H+L-POD (JIR, JIR109-036-098) was added in 1:5000 dilution and incubated at RT for 1 h on a shaker.
In test [6] the target is T3, full-length human Tim3 on cells (CHO-K1 stably transfected with plasmid 15312_hTIM3-fl_pUC_Neo) (human, UniProt Q8TDQ0 22-301). The test can be described thus: cell-based or functional assay.
The target in test [7] is T4, Tim3-ECD-His-Biotin (human, UniProt Q8TDQ0 22-202, biotinylated with BirA Ligase, site not stated).
T4 construct: also called human Tim3 (ELISA); Biochem Human
Description: ELISA on human Tim3 (values in relation to the samples max value).

Test [8] concerns the target T3, full-length human Tim3 on cells (CHO-K1 …). The test can be described thus: cellular ELISA on CHO-TIM3 (values in relation to the samples max value).
Description: (§1) Then the reaction was stopped by addition of 25 μl/well 1N HCL-solution.
Test [9] has the same target. Description: cellular ELISA on CHO-TIM3.
Description: as §1
Test [10] has as its target T4, Tim3-ECD-His-Biotin. The test can be described thus: ELISA on human Tim3.

B1: PD1-0073 (antibody, V domains shown)
VH: EVKLVESGGGLVKPGGSLKLSCAASGFTFSNYGMSWIRQTPEKGLEWVATISGGGRDTYYPDSVKGRFTISRDNVKNNLYLQMSSLRSEDTAFYYCASYYYGIDYWGQGTSVTVSS
VL: DIVMTQPHKFMSTSVGDRVRITCKASQDVTTAVAWYQQKPGQSPKLLIYWASTRHTGVPDRFTGSGSGTEFTLTISSVQAEDLALYYCQQHYSIPWTFGGGTKLEIK
What is called IC50 is the point on the concentration scale where inhibition reaches its midpoint. A low value points to inhibition by little substance. As usually defined, the EC50 is the midpoint of the concentration-response curve. As for B1, the 50% inhibitory concentration (IC50) came to 0.065 µg/mL in test [1] and 0.124 µg/mL in test [3]. In addition, the EC50 worked out at 0.0083 µg/mL in [2] and 0.0151 µg/mL in test [4].

B2: PD1-0069 (antibody, V domains shown)
VH: QVQLQQSGPELVRPGVSVKISCKGSGYTFTDYAMHWVKQSHARTLEWIGVISTYSGDTNYNQKFKDKATMTVDKSSSTAYLELARMTSEDSAIYYCARLGITTGFAYWGQGTLVTVSA
VL: DIVLTQSPASLAVSLGQRATISCRASKGVSTSSYSFMHWYQQKPRQPPKLLIKYASYLESGVPARFSGSGSGTDFTLNIHPVEEEDAATYYCHHSREFPWTFGGGTKLEIK
For B2, the IC50 came out at 0.089 µg/mL in [1] and 0.225 µg/mL in test [3]. In addition, the EC50 in [2] amounted to 0.0227 µg/mL; in test [4], 0.0457 µg/mL.

B3: Chimeric TIM3-0028 (antibody, human IgG1, V domains shown)
VH: EVQLQQSVAELVRPGASVKLSCTASGFNIKTTYMHWVKQRPEQGLEWIGRIDPADDNTKYAPKFQGKATITADTSSNTAYLQLSSLTSEDAAIYYCVRDFGYVAWFAYWGQGTLVTFSA
VL: NIVMTPTPKFLPVSSGDRVTMTCRASQSVDNYVAWYQQKPGQSPKLLIYYASNRYIGVPDRFTGSGSGTDFTFTISSVQVEDLAVYFCQQHYSSPYTFGSGTKLEIK
notes: also called aTIM3-chi28
For the molecule B3, the binding result in [5] is on record as “no binding”.

B4: Tim3_0016 (antibody, V domains shown)
VH: QVTLKESGPGILQPSQTLRLTCSFSGFSLSTSGMSVGWIRQPSGKGLEWLAHIWLNDDVFFNPALKSRLTISKDTSNNQVFLQIASVVTADTATYYCVRANGYLYALDYWGQGTSVTVSS
VL: QIVLTQSPAIMSASPGQKVTITCSASSSVNYTQWYQQKLGSSPKLWIYDAFKLAPGVPARFSGSGTGTSYSLTISSMEAEDAASYFCHQWSSYPWTFGGGTKLEIK
Take B4: in test [6], the “IFN-gamma release in MLR at 1 µg/ml antibody, % of rec hu IL-2 (20 EU/ml) = 100%” value was 7% and the “IFN-gamma release in MLR at 10 µg/ml antibody, % of rec hu IL-2 (20 EU/ml) = 100%” value stood at 22%.

B5: Tim3_0018MutNQ (antibody, V domains shown)
VH: QVTLKESGPGILQPSQTLSLTCSFSGFSLSTSGMSVGWIRQPSGKGLEWLAHIWLNDDVFFNPALKRRLTISKDTSNNQVFLQIASVVTADTATYYCVRANGYLYALDYWGQGISVTVSS
VL: QIVLTQSPAIMSASPGQKVTITCSASSSVQYTQWYQQKLGSSPKLWIYDAFKLAPGVPARFSGSGTGTSYSLTISSMEAEDAASYFCHQWSSYPWTFGGGTKLEIK
For B5, the EC50 in test [7] was determined as 0.012 µg/mL; in test [8], 0.0134 µg/mL. Moreover, the Inflexion point in test [9] was determined as 12.8 ng/mL; in [10] it was 10.8 ng/mL.

B6: Tim3_0016MutNQ (antibody, V domains shown)
VH: QVTLKESGPGILQPSQTLRLTCSFSGFSLSTSGMSVGWIRQPSGKGLEWLAHIWLNDDVFFNPALKSRLTISKDTSNNQVFLQIASVVTADTATYYCVRANGYLYALDYWGQGTSVTVSS
VL: QIVLTQSPAIMSASPGQKVTITCSASSSVQYTQWYQQKLGSSPKLWIYDAFKLAPGVPARFSGSGTGTSYSLTISSMEAEDAASYFCHQWSSYPWTFGGGTKLEIK
Turning to B6, the EC50 in test [7] was 0.0076 µg/mL; in [8] it was 0.0063 µg/mL. Besides, the Inflexion point in test [9] is 5.4 ng/mL; in test [10], 5.7 ng/mL.

B7: Tim3_0016MutNS (antibody, V domains shown)
VH: QVTLKESGPGILQPSQTLRLTCSFSGFSLSTSGMSVGWIRQPSGKGLEWLAHIWLNDDVFFNPALKSRLTISKDTSNNQVFLQIASVVTADTATYYCVRANGYLYALDYWGQGTSVTVSS
VL: QIVLTQSPAIMSASPGQKVTITCSASSSVSYTQWYQQKLGSSPKLWIYDAFKLAPGVPARFSGSGTGTSYSLTISSMEAEDAASYFCHQWSSYPWTFGGGTKLEIK
For the molecule B7, the values for the concentration for a half-maximal effect (EC50) in test [7] and in [8] were 0.0085 µg/mL and 0.0091 µg/mL, respectively. In addition, the Inflexion point was determined as 8.5 ng/mL in [9] and 5.5 ng/mL in [10].

B8: Tim3_0018MutNS (antibody, V domains shown)
VH: QVTLKESGPGILQPSQTLSLTCSFSGFSLSTSGMSVGWIRQPSGKGLEWLAHIWLNDDVFFNPALKRRLTISKDTSNNQVFLQIASVVTADTATYYCVRANGYLYALDYWGQGISVTVSS
VL: QIVLTQSPAIMSASPGQKVTITCSASSSVSYTQWYQQKLGSSPKLWIYDAFKLAPGVPARFSGSGTGTSYSLTISSMEAEDAASYFCHQWSSYPWTFGGGTKLEIK
For B8, the concentration giving a half-maximal response (EC50) worked out at 0.0103 µg/mL in test [7] and 0.0112 µg/mL in test [8]. For the same molecule, the Inflexion point amounted to 11.1 ng/mL in test [9] and 6.5 ng/mL in [10].

B9: PD1-0050 (antibody, V domains shown)
VH: DVQLQESGPGLVKPSQSLSLTCTVTGYSITSDYAWNWIRQFPGNKLEWMGYITYTGRTSYNPSLKSRISITRDTSKNQFFLQLNSVTTEDTATYYCAREMDYYGSTLDYWGQGTTLTVSS
VL: KIVLTQSPASLAVSLRQRATISCRASESVDRYGNSFIHWYQQKPGQPPKVLIYRASNLESGFPARFSGSGSRTDFTLTIDPVEADDAATYYCQQNNEDPYTFGSGTKLEIK
On to B9, for which the values for the IC50 in [1] and in test [3] were 0.034 µg/mL and 0.128 µg/mL, respectively. The values for the EC50 in [2] and in test [4] were 0.0098 µg/mL and 0.0179 µg/mL, respectively.

B10: PD1-0102 (antibody, V domains shown)
VH: DVQLQESGPDLVKPSQSLSLTCTVTGYSITSGYSWHWIRQFPGNKLEWMGFIHSSGDTNYNPSLKSRISFTRDTSKNQFFLQLSSLTDEDTATYYCATYRNWYFDVWGAGTTVTVSS
VL: DIVMTQSPSSLTVTAGEKVTMRCKSSQSLLNSGTQKNYLTWYQQKPGQPPKLLIYWASTRESGVPNRFTGSGSGTDFTLTISSVQAEDLSVYYCQSDYTFPLTFGGGTKLELK
On to B10, for which the IC50 in test [1] was 0.14 µg/mL; in test [3], more than 35.5 µg/mL. Also, the EC50 in test [2] worked out at 0.0527 µg/mL; in [4], 0.0342 µg/mL.

B11: PD1-0078 (antibody, V domains shown)
VH: QVQLQQPGAELVKPGASVKMSCKASGYTFTSTWMHWVKQRPGQGLEWIGAIDPSDSYTTYNQKFKGKATLTVDTSSTTAYMQLSSLTSEDSAVYYCTRSPFDYWGQGTTLTVSS
VL: DIVMTQSHKFMSTSVGDRVSITCKASQDVSTAVAWYQQKPGQSPKLLIYSASYRYTGVPDRFTGSGSGTDFTFAISSVQAEDLAVYYCQQHYSHPFTFGSGTKLEIK
For the molecule B11, in test [1], the IC50 turned out to be 0.086 µg/mL. The figures for the EC50 in test [2] and in test [4] were 0.0224 µg/mL and 0.0263 µg/mL, respectively.

B12: Tim3_0038 (antibody, V domains shown)
VH: EVQLQQSGAEPLKPGASVKLTCTTSGFNIKDYYIHWVKQRSDQGLEWIGRIDPEDGELIYAPKFQDKATITVDTSSNIAYLQLNSLTSEDTAVYYCSRDHGYVGWFAYWGQGTLVTVSA
VL: NVVMTQSPKSMIMSVGQRVTLNCKASENVDTYVSWYQQKPEQSPKLLIYGASNRYTGVPDRFTGSRSATDFTLTISSVQAEDLAVYYCGQSYSYPWTFGGGTKLEFR
As for B12, in test [6], the “IFN-gamma release in MLR at 1 µg/ml antibody, % of rec hu IL-2 (20 EU/ml) = 100%” value is 1%; the “IFN-gamma release in MLR at 10 µg/ml antibody, % of rec hu IL-2 (20 EU/ml) = 100%” value worked out at 38%; the “IFN-gamma release in MLR at 40 µg/ml antibody, % of rec hu IL-2 (20 EU/ml) = 100%” value is 51%.

B13: PD1-0098 (antibody, V domains shown)
VH: DVQLQESGPGLVKPSQSLSLTCTVTGYSITSDYAWNWIRQFPGDKLEWLGYITYSGFTNYNPSLKSRISISRDTSKNQFFLQLNSVATEDTATYYCARWHGSAPWYFDYWGRGTTLTVSS
VL: DVLMTQTPLSLPVSLGDQASISCRSSQNIVHSDGNTYLEWYLQKPGQSPNLLIYKVSRRFSGVPDRFSGSGSGTDFTLKISRVEAEDLGVYYCFQGSHFPLTFGAGTKLELK
Regarding B13, the IC50 came out at 0.045 µg/mL in test [1] and 0.174 µg/mL in [3]. Further, the values for the EC50 in test [2] and in [4] were 0.0546 µg/mL and 0.0508 µg/mL, respectively.

B14: PD1-0103 (antibody, V domains shown)
VH: EVILVESGGGLVKPGGSLKLSCAASGFSFSSYTMSWVRQTPEKRLDWVATISGGGRDIYYPDSVKGRFTISRDNAKNTLYLEMSSLMSEDTALYYCVLLTGRVYFALDSWGQGTSVTVSS
VL: KIVLTQSPASLPVSLGQRATISCRASESVDTSDNSFIHWYQQRPGQSPKLLIYRSSTLESGVPARFSGSGSRTDFTLTIDPVEADDVATYYCQQNYDVPWTFGGGTKLEIK
notes: Mouse monoclonal antibody
As to B14, the IC50 is 0.051 µg/mL in test [1] and 0.182 µg/mL in [3]. Moreover, the results for the EC50 in [2] and in [4] were 0.0369 µg/mL and 0.0337 µg/mL, respectively.
